According to US20150344570A1 (published 2015):

T1: FcγRIIa H (FcγRIIa, allotype with His at position 131), extracellular domain with C-terminal His tag (human, UniProt P12318 34-217)
T1 construct: extracellular domain; also called FcgRIIa H; 2aH; not shown: His tag at the C terminus
T1 sequence (looked up): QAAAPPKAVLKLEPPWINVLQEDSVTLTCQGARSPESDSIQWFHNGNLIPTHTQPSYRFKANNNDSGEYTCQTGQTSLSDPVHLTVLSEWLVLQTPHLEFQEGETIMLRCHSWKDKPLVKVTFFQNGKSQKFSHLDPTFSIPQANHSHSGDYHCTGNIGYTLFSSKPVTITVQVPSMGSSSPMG

T2: FcγRIIb, extracellular domain with C-terminal His tag (human, UniProt P31994 43-217)
T2 construct: extracellular domain; also called FcgRIIb; 2b; not shown: His tag at the C terminus
T2 sequence (looked up): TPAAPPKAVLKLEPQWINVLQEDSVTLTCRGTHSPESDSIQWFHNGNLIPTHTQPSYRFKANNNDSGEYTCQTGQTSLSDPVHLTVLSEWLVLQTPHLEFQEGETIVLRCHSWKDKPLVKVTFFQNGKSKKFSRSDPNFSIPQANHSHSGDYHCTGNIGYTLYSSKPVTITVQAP

T3: FcγRIIa H (human, UniProt P12318 34-217)
T3 construct: extracellular domain; also called FcγRIIa type H; 2aH; not shown: His tag at the C terminus
T3 sequence (looked up): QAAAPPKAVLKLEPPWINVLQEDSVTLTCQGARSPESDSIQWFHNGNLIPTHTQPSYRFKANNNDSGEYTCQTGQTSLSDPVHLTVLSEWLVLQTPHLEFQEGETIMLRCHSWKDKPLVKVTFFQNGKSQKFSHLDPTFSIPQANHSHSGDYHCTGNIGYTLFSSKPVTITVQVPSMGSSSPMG

T4: FcγRIIb (human, UniProt P31994 43-217)
T4 construct: extracellular domain; also called 2b; not shown: His tag at the C terminus
T4 sequence (looked up): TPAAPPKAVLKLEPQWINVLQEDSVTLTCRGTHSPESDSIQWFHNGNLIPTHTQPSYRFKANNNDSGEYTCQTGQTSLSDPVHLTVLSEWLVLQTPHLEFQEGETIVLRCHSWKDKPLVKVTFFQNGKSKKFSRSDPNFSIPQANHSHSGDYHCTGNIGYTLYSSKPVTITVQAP


Columns and labels:
[1] = target: T1, FcγRIIa H (FcγRIIa, allotype with His …); test: SPR (Biacore); He/Con_2aH divided by He/Con_2b (FcγRIIb)
[2] = target: T1, FcγRIIa H (FcγRIIa, allotype with His …); test: SPR (Biacore), relative binding vs GpH7-A5/GpH7-B3/GpL16-k0
[3] = target: T2, FcγRIIb, extracellular domain with …; test: as above
FcγRIIa H [4] = target: T3, FcγRIIa H; test: SPR (Biacore); He/Con_2aH divided by He/Con_2b (FcγRIIa H over FcγRIIb)
FcγRIIa H [5] = target: T3, FcγRIIa H; test: SPR (Biacore), antibody captured, FcγR as analyte; binding relative to GpH7-A5/GpH7-B3/GpL16-k0 = 100
Protocol: (§1) The heterodimerized antibodies He Abs in which one of the H chains was introduced with an alteration were assayed for their binding activities to each activating FcγR and inhibitory FcγR according to the method described in Example 4. […] The activating FcγRs in FIGS. 26, 27, 28, and 29 are FcγRIa, FcγRIIa (R), FcγRIIa (H), and FcγRIIIa, respectively.
(§2) Analysis of interaction between objective antibody and the FcγR was carried out using Biacore T100 (GE Healthcare). HBS-EP+ (GE Healthcare) was used as the running buffer, and the measurement temperature was set to 25° C. Chips produced by immobilizing the antigen peptide by the amine coupling method to a Series S Sencor Chip CM5 (GE Healthcare), or alternatively, chips produced by allowing preliminarily biotinylated antigen peptides to interact with and immobilize onto a Series S Sensor Chip SA (certified) (GE Healthcare) were used. Antibodies of interest were captured onto an antigen peptide-immobilized chip, and allowed to interact to each FcγR diluted with running buffer. To regenerate and repeatedly use the chip, the antibodies captured on the chip were washed off by reacting 10 mM glycine-HCl, pH 1.5.

FcγRIIb = target: T4, FcγRIIb; test: as above
Protocol: as §1, §2

| Binder | He_2aH/2b (IIaH/IIb) [1] [ratio] | He/Con_2aH [2] | He/Con_2b [3] | He_2aH/2b (IIaH/IIb) (FcγRIIa H [4]) [ratio] | He/Con_2aH (FcγRIIa H [5]) | He/Con_2b (FcγRIIb) |
| --- | --- | --- | --- | --- | --- | --- |
| GpH7-A5/GpH7-B3 variant G236_04F/GpL16-k0 (antibody, human IgG1, kappa, Heterodimerized IgG1; mutation in the GpH7-B3 chain only; also called He Ab) heavy 1: not shown heavy 2: not shown light: DIVMTQSPLSLPVTPGEPASISCQASESLVHSNRNTYLHWYLQKPGQSPQLLIYKVSNRFSGVPDRFSGSGSGTDFTLKISRVEAEDVGVYYCSQNTHVPPTFGQGTKVEIERTVAAPSVFIFPPSDEQLKSGTASVVCLLNNFYPREAKVQWKVDNALQSGNSQESVTEQDSKDSTYSLSSTLTLSKADYEKHKVYACEVTHQGLSSPVTKSFNRGEC |  |  |  | 3 | 118 % of control | 39.3 % of control |
| GpH7-A5/GpH7-B3 variant G236_05P/GpL16-k0 (antibody, human IgG1, kappa, Heterodimerized IgG1; mutation in the GpH7-B3 chain only; also called He Ab) heavy 1: not shown heavy 2: not shown light: DIVMTQSPLSLPVTPGEPASISCQASESLVHSNRNTYLHWYLQKPGQSPQLLIYKVSNRFSGVPDRFSGSGSGTDFTLKISRVEAEDVGVYYCSQNTHVPPTFGQGTKVEIERTVAAPSVFIFPPSDEQLKSGTASVVCLLNNFYPREAKVQWKVDNALQSGNSQESVTEQDSKDSTYSLSSTLTLSKADYEKHKVYACEVTHQGLSSPVTKSFNRGEC |  |  |  | 3.34 | 63.5 % of control | 19 % of control |
| GpH7-A5/GpH7-B3 variant G236_03V/GpL16-k0 (antibody, human IgG1, kappa, Heterodimerized IgG1; mutation in the GpH7-B3 chain only; also called He Ab) heavy 1: not shown heavy 2: not shown light: DIVMTQSPLSLPVTPGEPASISCQASESLVHSNRNTYLHWYLQKPGQSPQLLIYKVSNRFSGVPDRFSGSGSGTDFTLKISRVEAEDVGVYYCSQNTHVPPTFGQGTKVEIERTVAAPSVFIFPPSDEQLKSGTASVVCLLNNFYPREAKVQWKVDNALQSGNSQESVTEQDSKDSTYSLSSTLTLSKADYEKHKVYACEVTHQGLSSPVTKSFNRGEC |  |  |  | 3.39 | 119 % of control | 35.3 % of control |
| GpH7-A5/GpH7-B3 variant G236_06M/GpL16-k0 (antibody, human IgG1, kappa, Heterodimerized IgG1; mutation in the GpH7-B3 chain only; also called He Ab) heavy 1: not shown heavy 2: not shown light: DIVMTQSPLSLPVTPGEPASISCQASESLVHSNRNTYLHWYLQKPGQSPQLLIYKVSNRFSGVPDRFSGSGSGTDFTLKISRVEAEDVGVYYCSQNTHVPPTFGQGTKVEIERTVAAPSVFIFPPSDEQLKSGTASVVCLLNNFYPREAKVQWKVDNALQSGNSQESVTEQDSKDSTYSLSSTLTLSKADYEKHKVYACEVTHQGLSSPVTKSFNRGEC |  |  |  | 1.88 | 85.7 % of control | 45.5 % of control |

Second part, the binder after the results:

| He_2aH/2b (IIaH/IIb) [1] [ratio] | He/Con_2aH [2] | He/Con_2b [3] | He_2aH/2b (IIaH/IIb) (FcγRIIa H [4]) [ratio] | He/Con_2aH (FcγRIIa H [5]) | He/Con_2b (FcγRIIb) | Binder |
| --- | --- | --- | --- | --- | --- | --- |
| 0.75 | 82.8 % of HeCon Ab (=100) | 111 % of HeCon Ab (=100) |  |  |  | GpH7-A5/GpH7-B3 variant P331_20W/GpL16-k0 (antibody, human IgG1, kappa, Heterodimerized anti-glypican-3 IgG1; mutation in one H chain only; also called He Ab) heavy 1: not shown heavy 2: not shown light: DIVMTQSPLSLPVTPGEPASISCQASESLVHSNRNTYLHWYLQKPGQSPQLLIYKVSNRFSGVPDRFSGSGSGTDFTLKISRVEAEDVGVYYCSQNTHVPPTFGQGTKVEIERTVAAPSVFIFPPSDEQLKSGTASVVCLLNNFYPREAKVQWKVDNALQSGNSQESVTEQDSKDSTYSLSSTLTLSKADYEKHKVYACEVTHQGLSSPVTKSFNRGEC |
|  |  |  | 1.79 | 103 % of control | 57.8 % of control | GpH7-A5/GpH7-B3 variant G236_14T/GpL16-k0 (antibody, human IgG1, kappa, Heterodimerized IgG1; mutation in the GpH7-B3 chain only; also called He Ab) heavy 1: not shown heavy 2: not shown light: DIVMTQSPLSLPVTPGEPASISCQASESLVHSNRNTYLHWYLQKPGQSPQLLIYKVSNRFSGVPDRFSGSGSGTDFTLKISRVEAEDVGVYYCSQNTHVPPTFGQGTKVEIERTVAAPSVFIFPPSDEQLKSGTASVVCLLNNFYPREAKVQWKVDNALQSGNSQESVTEQDSKDSTYSLSSTLTLSKADYEKHKVYACEVTHQGLSSPVTKSFNRGEC |
| 0.73 | 84.5 % of HeCon Ab (=100) | 116 % of HeCon Ab (=100) |  |  |  | GpH7-A5/GpH7-B3 variant P331_16H/GpL16-k0 (antibody, human IgG1, kappa, Heterodimerized anti-glypican-3 IgG1; mutation in one H chain only; also called He Ab) heavy 1: not shown heavy 2: not shown light: DIVMTQSPLSLPVTPGEPASISCQASESLVHSNRNTYLHWYLQKPGQSPQLLIYKVSNRFSGVPDRFSGSGSGTDFTLKISRVEAEDVGVYYCSQNTHVPPTFGQGTKVEIERTVAAPSVFIFPPSDEQLKSGTASVVCLLNNFYPREAKVQWKVDNALQSGNSQESVTEQDSKDSTYSLSSTLTLSKADYEKHKVYACEVTHQGLSSPVTKSFNRGEC |
|  |  |  | 1.39 | 135 % of control | 96.7 % of control | GpH7-A5/GpH7-B3 variant G236_13S/GpL16-k0 (antibody, human IgG1, kappa, Heterodimerized IgG1; mutation in the GpH7-B3 chain only; also called He Ab) heavy 1: not shown heavy 2: not shown light: DIVMTQSPLSLPVTPGEPASISCQASESLVHSNRNTYLHWYLQKPGQSPQLLIYKVSNRFSGVPDRFSGSGSGTDFTLKISRVEAEDVGVYYCSQNTHVPPTFGQGTKVEIERTVAAPSVFIFPPSDEQLKSGTASVVCLLNNFYPREAKVQWKVDNALQSGNSQESVTEQDSKDSTYSLSSTLTLSKADYEKHKVYACEVTHQGLSSPVTKSFNRGEC |
